Test results published in patent publication US20180037638A1 (SORRENTO THERAPEUTICS, published 2018).

B1: C7 (antibody, V domains shown)
VH: EVQLVQSGAEMKKPGASMKVSCKTSGYTFARKYMHWLRQAPGQGLEWMGIINPTGGTKSYAPKFQGRVTMTSDMSTNTVYMELNSLRSEDTAVYYCVSDDEEPVWGQGTMVTVSS
VL: QSALTQPPSVSKGLRQTATLTCTGNSNNVGSQGAAWLQQHQGHPPKVLSYRNNNRPSGISERFSASRSGNTASLTITGLQPEDEGDYYCSAWDSSLSAPVFGGGTKLTVL
B2: E7 (antibody, V domains shown)
VH: EVQLVQSGAEVKKPGASVRVSCKTSGYSFTSYDINWVRQTTGQGLEWMGWVNPTSGSTGYAQKFQGRVTMTANTAINTAYMELRDLRSEDTAVYFCVRDVPFDPWGQGTLVTVSS
VL: LQSVLTQPASVSGSPGQSITISCTGTSSDVGKYTFVSWYQQHPGKAPKVMVYEVNKRPLGVSPRFSGSKSGNTAYLTISGLQAEDEADYYCSSYTSSSTVVFGGGTKLTVL

Legend:
AIP1 = AIP1 (Staphylococcus aureus); assay: cell-based or functional assay
AIP4 = AIP4 (Staphylococcus aureus); assay: cell-based or functional assay

| Binder | Inhibition of AIP1 QS (IC50; nM), agr-driven YFP reporter strain USA300-LAC (AIP1) | Inhibition of AIP4 QS (IC50; nM), agr-driven YFP reporter strain MnTG (AIP4) |
| --- | --- | --- |
| B1 | 110 nM | 86 nM |
| B2 | 91.1 nM | 53.5 nM |
